PMC4029802, “PKCε Promotes HuD-Mediated Neprilysin mRNA Stability and Enhances Neprilysin-Induced Aβ Degradation in Brain Neurons”

Target: HuD (UniProt P26378 1-385)
Test: EMSA; 2 uM HuD, 125 nM probe; complex specificity confirmed with unlabeled competitor oligoriboprobe; 10 mM HEPES pH 7.3, 20 mM KCl, 1 mM MgCl2, 1 mM DTT, 5% glycerol, 2 ug/ml tRNA, 30 min, room temperature; 6% native PAGE, 0.5X TBE
Conditions: protein: commercial; label: 3'-biotin

Chain of HuD (P26378 whole entry): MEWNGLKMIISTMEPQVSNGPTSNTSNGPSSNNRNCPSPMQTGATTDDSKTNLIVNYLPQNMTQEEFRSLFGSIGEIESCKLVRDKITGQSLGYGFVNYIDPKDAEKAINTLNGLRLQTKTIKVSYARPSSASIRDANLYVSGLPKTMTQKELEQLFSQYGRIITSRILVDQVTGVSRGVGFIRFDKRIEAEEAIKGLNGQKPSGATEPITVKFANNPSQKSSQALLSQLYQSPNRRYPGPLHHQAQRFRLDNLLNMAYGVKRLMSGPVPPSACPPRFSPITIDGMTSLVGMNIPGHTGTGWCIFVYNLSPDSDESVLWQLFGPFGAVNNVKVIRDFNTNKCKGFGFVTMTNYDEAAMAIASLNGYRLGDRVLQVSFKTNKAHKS

B1: NEP mRNA 3'-UTR ARE oligoribonucleotide (ssRNA)
RNA: UUCUGUGAUCAUUUAUUUUAAGCACUC
B1: binds.
